From IntAct's records for PubMed 26224785

B1: Microsomal triglyceride transfer protein large subunit (Homo sapiens), P55157 (parent)
chain: MILLAVLFLCFISSYSASVKGHTTGLSLNNDRLYKLTYSTEVLLDRGKGKLQDSVGYRISSNVDVALLWRNPDGDDDQLIQITMKDVNVENVNQQRGEKSIFKGKSPSKIMGKENLEALQRPTLLHLIHGKVKEFYSYQNEAVAIENIKRGLASLFQTQLSSGTTNEVDISGNCKVTYQAHQDKVIKIKALDSCKIARSGFTTPNQVLGVSSKATSVTTYKIEDSFVIAVLAEETHNFGLNFLQTIKGKIVSKQKLELKTTEAGPRLMSGKQAAAIIKAVDSKYTAIPIVGQVFQSHCKGCPSLSELWRSTRKYLQPDNLSKAEAVRNFLAFIQHLRTAKKEEILQILKMENKEVLPQLVDAVTSAQTSDSLEAILDFLDFKSDSSIILQERFLYACGFASHPNEELLRALISKFKGSIGSSDIRETVMIITGTLVRKLCQNEGCKLKAVVEAKKLILGGLEKAEKKEDTRMYLLALKNALLPEGIPSLLKYAEAGEGPISHLATTALQRYDLPFITDEVKKTLNRIYHQNRKVHEKTVRTAAAAIILNNNPSYMDVKNILLSIGELPQEMNKYMLAIVQDILRFEMPASKIVRRVLKEMVAHNYDRFSRSGSSSAYTGYIERSPRSASTYSLDILYSGSGILRRSNLNIFQYIGKAGLHGSQVVIEAQGLEALIAATPDEGEENLDSYAGMSAILFDVQLRPVTFFNGYSDLMSKMLSASGDPISVVKGLILLIDHSQELQLQSGLKANIEVQGGLAIDISGAMEFSLWYRESKTRVKNRVTVVITTDITVDSSFVKAGLETSTETEAGLEFISTVQFSQYPFLVCMQMDKDEAPFRQFEKKYERLSTGRGYVSQKRKESVLAGCEFPLHQENSEMCKVVFAPQPDSTSSGWF
partner: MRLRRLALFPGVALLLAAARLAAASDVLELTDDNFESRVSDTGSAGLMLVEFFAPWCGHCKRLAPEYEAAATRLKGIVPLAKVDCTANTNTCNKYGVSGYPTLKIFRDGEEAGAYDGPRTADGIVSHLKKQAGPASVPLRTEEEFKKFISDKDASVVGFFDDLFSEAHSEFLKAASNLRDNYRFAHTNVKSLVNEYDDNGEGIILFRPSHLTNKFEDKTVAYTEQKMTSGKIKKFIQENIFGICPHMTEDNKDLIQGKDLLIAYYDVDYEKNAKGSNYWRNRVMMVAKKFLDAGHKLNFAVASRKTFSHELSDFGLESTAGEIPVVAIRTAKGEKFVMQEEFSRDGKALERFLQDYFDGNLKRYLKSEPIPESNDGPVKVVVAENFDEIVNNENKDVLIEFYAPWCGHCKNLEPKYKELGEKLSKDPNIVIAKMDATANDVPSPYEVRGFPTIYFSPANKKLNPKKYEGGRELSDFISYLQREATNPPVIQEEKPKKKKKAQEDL
B2: Microsomal triglyceride transfer protein large subunit (Homo sapiens), P55157 (parent)
chain: B1 chain

Variants of: B1
Details: with pdia3_chlae PDIA3, Q4VIT4

effect of a mutation on the interaction	Variant
decreasing interaction strength	K189L
with no effect	K189R
disrupting interaction strength	D169V
with no effect	D169E
with no effect	K187R
decreasing interaction strength	K187L

Variants of: B1
Details: with pdia3_chlae PDIA3, Q4VIT4
Remark: another data set of the same source

effect of a mutation on the interaction	Variant
with no effect	K189L
with no effect	D169V
with no effect	K187L

Variants of: B2
Details: with apob_human APOB

effect of a mutation on the interaction	Variant
with no effect	K189R
with no effect	K189L
with no effect	K187L
with no effect	K187R
with no effect	D169E
with no effect	D169V
